Assay: soluble on expression in E. coli; label from the status in PepcDB or PDB records

MFHLRTCAAKLRPLTASQTVKTFSQNRPAAARTFQQIRCYSAPVAAEPFLSGTSSNYVEEMYCAWLENPKSVHKSWDIFFRNTNAGAPPGTAYQSPLPLSRGSLAAVAHAQSLVEAQPNVDKLVEDHLAVQSLIRAYQIRGHHVAQLDPLGILDADLDSSVPADIISSTDKLGFYGLDESDLDKVFHLPTTTFIGGQESALPLREIIRRLEMAYCQHIGVEFMFINDLEQCQWIRQKFETPGIMQFTNEEKRTLLARLVRSTRFEEFLQRKWSSEKRFGLEGCEVLIPALKTIIDKSSENGVDYVIMGMPHRGRLNVLANVIRKELEQIFCQFDSKLEAADEGSGDVKYHLGMYHRRINRVTDRNITLSLVANPSHLEAADPVVMGKTKAEQFYCGDTEGKKVMSILLHGDAAFAGQGIVYETFHLSDLPSYTTHGTVHVVVNNQIGFTTDPRMARSSPYPTDVARVVNAPIFHVNSDDPEAVMYVCKVAAEWRSTFHKDVVVDLVCYRRNGHNEMDEPMFTQPLMYKQIRKQKPVLQKYAELLVSQGVVNQPEYEEEISKYDKICEEAFARSKDEKILHIKHWLDSPWPGFFTLDGQPRSMSCPSTGLTEDILTHIGNVASSVPVENFTIHGGLSRILKTRGEMVKNRTVDWALAEYMAFGSLLKEGIHIRLSGQDVERGTFSHRHHVLHDQNVDKRTCIPMNHLWPNQAPYTVCNSSLSEYGVLGFEAGLRMASPNALVLWEAQFGDFHNTAQCIIDQFICPGQAKWVRQNGIVLLLPHGMEGMGPEHSSARPERFLQMCNDDPDVLPDLKEANFDINQLYDCNWVVVNCSTPGNFFHVLRRQILLPFRKPLIIFTPKSLLRHPEARSSFDEMLPGTHFQRVIPEDGPAAQNPENVKRLLFCTGKVYYDLTRERKARDMVGQVAITRIEQLSPFPFDLLLKEVQKYPNAELAWCQEEHKNQGYYDYVKPRLRTTISRAKPVWYAGRNPAAAPATGNKKTH
soluble on expression in E. coli: soluble

SLKYCIHNTRLIIGIADRVIENGSILFDQDKILKVSAHSITDADVFIDGTTFSVLPGLIDVHVHLGMDCSVDPFDTMENTEDAFTSFIAYKQGLQFLRAGITTVRNLGTKNNVDIIYKKAVESGLVIGPRVYAAGQPLIMTGGHGQPMGTEVDGKDEVIKATRQRIKEGADLIKIMATGGVLTKGNHPGAVHFNVDELKCICQEAAKASLTTAAHAIGLNGVKNAIKAGVNTIEHGYYLDKETVDTMRDLGIYLTPTLLAPTLLQKNSEHIPQHMIDKIEEIEKEHRKSFRLALERGVKIIAGTDAGTPFNNPGQLVEELKIMLEEGMTTAQAIESATYLGAKCLKVDSLIGSLEEQKLADLIVVKGNPLEDISNLKNIQHVFKGGVRLYPDQIH
soluble on expression in E. coli: soluble

RMEIVKIPVVVHVVWNEEEENISDAQIQSQIDILNKDFRKLNSDVSQVPSVWSNLIADLGIEFFLATKDPNGNQTTGITRTQTSVTFFTTSDEVKFASSGGEDAWPADRYLNIWVCHVLKSEIGQDILGYAQFPGGPAETDGVVIVDAAFGTTGTALPPFDKGRTATHEIGHWLNLYHIWGDELRFEDPCSRSDEVDDTPNQADPNFGCPSYPHVSCSNGPNGDMFMNYLDYVDDKCMVMFTQGQATRVNACLDGPRSSFLA
soluble on expression in E. coli: soluble

MSLSNSLLPPNASGLERDIEQVIVQSTDLPIRIKDLWNPYSCHLSLLPWLAWALSVDEWDDRWPEHIKRQVVQDSFDVHRFKGTPYAVQKALDSLNIKTHLREWWEPDGSQEPGTMTVVALINENLTDDDNGLITEAMLEQVTRVIHTAKRGVIHFDVELGISLDETLGFSGAIGPSIAEIDFSSDFLPIVPEKGSADMAFSAALYGIGSADFLADMSGVVPDEGHHHHHH
soluble on expression in E. coli: not soluble

MNNIGVPAREVDVVVTGAGQAGLSSAFHLRRTGFEPERDFVVLDHAPRPGGAWQFRWPSLTYRKVHGMHALPGMELTDADPSRPSSEVIAEYFDTYERTFDLRVRRPVDVTAVREGEGGRLLVQTSDGTWATRALINATGTWDRPFWPRYPGQESFRGRQLHTAQYPGPEEFAGQRVVVVGGGASGTQHLMEIAPYAASTTWVTRRPPVFREGPFSEDVGRAAVAMVEERVRRGLPPRSVVSVTGLPLNDAVRRAIADGVLDRLPVFDRITPDGVEWDDGRRVAADVILWATGFRAAIDHLAPLRLRAPGGGIRVEGTRVVADPRIHLVGYGPSASTIGANRAGRAAVRDIRRLLAGEPLTVLEHHHHHH
soluble on expression in E. coli: soluble

MGKVTIIAGGIKTESRLTGLTQLAANELVTNGLEVNIIEVHKINAEALVTADFAHSDIQLANSEIESSSGVIIATPIFKAAYSGVLKAYLDLLPLKALKGKVVLPLGLGGSNGHLLALQYALDPVLKELGAETILKGQFTVDKQIERLGDGLYEIESSAKERLDIALGQFISLLNQQSVEVLEHHHHHH
soluble on expression in E. coli: soluble

SEKLINRVGPNGESRAQAVTSDQEKRLLHQLREITRVMKEGKFIDTSPEKEAEEAPYMEDWEGYPEETYPIYDLSDGIKRRQETILVDYPDLKEPSAEEIAEQMGEIEEEGSERLSWDHLPTDPGAQKDNSVAPCDPKPESCSCCVHEEEDPAVLAENAGFSADGYSEQEEATKENLPQDFTNEGLGVSTDNAHVGGMLRKRNPQGFE
soluble on expression in E. coli: soluble

MAHHHHHHMSEGKRATSAAPEAKYNAYAEAADPDRYRVADALLFTCAEHGKACVLCVTAGKNGRSGRTAAVGATLFWLTCPNLNAIIARFEGHRCVQAVSAAMAQQPCLCDWHVQSHDVYASRAKDLLSPAQWCFFESHFLSDEQPSLHKYGNAAVSHASDMKCLHALVAQTLAGVANPVGSVVVNYILLQHKLVCEAADTGNTEQQGVEEKRLLMKATLNSTRLFSDFTTAFVRAASERPREDWHALHNVSFEVPLPEGNMWCKTAVQYMWQVDSQLAALCPDLCARALTVHVALGGPSRRRHKKHRMN
soluble on expression in E. coli: not soluble

MADDGVNPKAFPLADTNLSQKLMDLVQQAMNYKQLKKGANEATKTLNRGISEIIVMAADAEPLEILLHLPLLCEDKNVPYVFVRSKAALGRACGVTRPVIAASITQNEGSQLKSQIQKIKEDVEKLLI
soluble on expression in E. coli: not soluble

MGSDKIHHHHHHMNIRSRTNNADDLAWVHLIERRKQVELWQFSCLRQSYTLELSPNVMEGVKPEGQLVMVQWSPSNDLQRVKVTLNIHEVTDQAAVNHHFKLVPAGCESIIIDIWGILGLIHDEALRRFYLAVLLNNELMGQFFNARASRSHHHNHACGLLEHSHEVAVTAAMLCWRYNVGPLSVGVAFIGGLLHDIGKIHLFYNADTRDGIAGSHESYNFMVLAEPLELLYRSSPKVFEALSSCLSVKIGRRSEAYIPASMVRLCDNLSMEVCHWRTAFADVPPHHWYAHSAMNDQWYKRLG
soluble on expression in E. coli: not soluble

MEESPTKTFKCPKCWNKFENKPKLITHVDLECKHKYFRCELCDFKSTQKTGLTSHYHGHIRQSNVIHCPYCKKKKTFKSRNNLMVHVHHYHPTHINEMKQANLESAKEEKMKTMLEKQAKEAHEFEISQPAVFEKDFASYDLPMFSQCPPMNGIPVSTPIEYPYSQNPYQDHTPFDSYPYPNFHPQQLPLPTFENNLPDIATYFDL
soluble on expression in E. coli: not soluble

GSGIIEFHVIGNSLTPKANRRVLLWLVGLQNVFSHQLPRMPKEYIARLVFDPKHKTLALIKDGRVIGGICFRMFPTQGFTEIVFCAVTSNEQVKGYGTHLMNHLKEYHIKHNILYFLTYADEYAIGYFKKQGFSKDIKVPKSRYLGYIKDYEGATLMECELNPRIPYT
soluble on expression in E. coli: soluble

MVSAPSIDTPSATTFDFDSSVFKKEKVTLSGHDEYIVRGGRNLFPLLPDAFKGIKQIGVIGWGSQAPAQAQNLKDSLTEAKSDVVVKIGLRKGSNSFAEARAAGFSEENGTLGDMWETISGSDLVLLLISDSAQADNYEKVFSHMKPNSILGLSHGFLLGHLQSLGQDFPKNISVIAVCPKGMGPSVRRLYVQGKEVNGAGINSSFAVHQDVDGRATDVALGWSIALGSPFTFATTLEQEYKSDIFGERGILLGAVHGIVECLFRRYTESGMSEDLAYKNTVECITGVISKTISTKGMLALYNSLSEEGKKDFQAAYSASYYPSMDILYECYEDVASGSEIRSVVLAGRRFYEKEGLPAFPMGKIDQTRMWKVGEKVRSVRPAGDLGPLYPFTAGVYVALMMAQIEILRKKGHSYSEIINESVIEAVDSLNPFMHARGVSFMVDNCSTTARLGSRKWAPRFDYILSQQALVAVDNGAPINQDLISNFLSDPVHEAIGVCAQLRPSVDISVTADADFVRPELRQA
soluble on expression in E. coli: soluble

MSLGILEDKKRARIFYRYFSKIYDYINPIFYSDKMRKTVVDMADIDAESLVLEVGCGTGFTTEEIVRRIGEERVVAVDITPEQMMKARAKMGGVNYFLGDAENLPFKDNSFDAAISAGSIEYWPNPQRGIEEMARVTKSGGKVVILAPRKPDNFAVRKFAESIMLFPSTQQCVYWFMKAGLEDIRFVETGPYRFWSKLVVIISGTVPEGHHHHHH
soluble on expression in E. coli: soluble

MGSDKIHHHHHHMLPGSRSLSKELGINRKTVQAVYEELEAQGWLVTRPRKGTFVADVLPEKKPHIEPRADRKVSNKPIIQQVAQRPHNDGVPDPRLIPYELFSRAYRHALIKITQNQYMGYGDPRGMAELRQALKQMLSMERFMNVAEDEICVVRGSQMGIFLASRALPNRQGVIVVEELYYPSAVKAFQSNGFQVVSVKLDDQGIVIEDLERILKEHSVAAIYTTPHHQYPTTVTMTMSRRLQLLELSKKWGFYIIEDDYDHEFHYDSRPMPPLASLPHSELVIHVGSLSKVFAPGIRLGYIVAAPTIIQTITEDILLIDRQGNNITELALADLMQRGEIKRHIRKMKKIYQLRRDHALAEFQRVFAESIEIQPPAGGMALWVKFQKSFTQDQLIKLKELNIDTEQKFKQKECANHCIRFGFAALSEKEITSLIETLNEAL
soluble on expression in E. coli: not soluble

MKKTFEKVYHLKLSIKGITPQIWRRIQVPENYTFLDLHKAIQAVMDWEDYHLHEFEMVNPKTGMLDKIGAEGDDFDAFGGPLVSEKKAKLSDYFTLENKEALYTYDFGDNWQVKVRLEKILPRKEGVEYPICTAGKRAAVPEDSGGVWGYEEMLEVLKDSEHEEYEDTVLWLGDDFDPEYFDPKDVSF
soluble on expression in E. coli: soluble

MSLSDDLFAPQVPVEVANRRPLADRLRPKTLSEVSGQPHLTGEEGVLRRMIDSGSLGSMIFWGPPGTGKTTVARLLSGEAGLAFEQISAIFSGVADLKKVFEAARTRRMNGRQTLLFVDEIHRFNRAQQDSFLPVMEDGTIILVGATTENPSFELNAALLSRARVLTFGSHDEDSLSELLKRAEEAEGKPLPLTEEARASLLRMADGDGRAVLTLAEEVWRAARKDETFDTEGLTRIVQRRAPVYDKSQDGHYNLISALHKSVRGSDPDAALYYLARMFDAGEDPLYLGRRLVRMAVEDIGLADPQALAVCNAAKDAYDYLGSPEGELALAQACVYLATAPKSNAVYTAFKAAMRAAKENGSLVPPKHILNAPTKLMKGEGYGDGYRYDHDEPDAFSGQDYFPEKMGRTTFYDPPDRGFEREIRKRLDWWAKLRRERGEGHHHHHH
soluble on expression in E. coli: not soluble
